Reference: patent US12281162 (LANOVA MEDICINES DEVELOPMENT, dated 2025)

How the values were obtained:
[1] = biological target: T1, human G-protein-coupled receptor family C group 5 member D (GPRC5D) (human, UniProt Q9NZD1 1-345); assay: FACS, CHO-K1/human GPRC5D
T1 construct: whole, on cells; also called human GPRC5D protein

[2] = biological target: T1, human G-protein-coupled receptor family …; assay: FACS, CHO-K1/GPRC5D
[3] = biological target: T1, human G-protein-coupled receptor family …; assay: FACS, NCI-H929 cells
[4] = biological target: T1, human G-protein-coupled receptor family …; assay: FACS, CHO-K1/human GPRC5D, chimeric antibody
Procedure: CHO—K1 cells stably expressed human GPRC5D, were harvested from flasks. 100 µl of 1×10⁶ cells/ml of cells were incubated with primary chimeric antibodies in 3-fold serial dilutions starting from 300 nM to 0.001 nM for 30 minutes on ice. After being washed with 200 µl of FACS buffer twice, cells were incubated with secondary antibody for 30 minutes on ice. Cells were washed with 200 µl of FACS buffer twice and transferred to BD Falcon 5 ml tube and analyzed by FACS.

[5] = biological target: T1, human G-protein-coupled receptor family …; assay: FACS, CHO-K1/GPRC5D; remark: listed apart in the source
[6] = biological target: T1, human G-protein-coupled receptor family …; assay: FACS, CHO-K1/GPRC5D; remark: listed apart in the source

T1 sequence (Q9NZD1 whole entry): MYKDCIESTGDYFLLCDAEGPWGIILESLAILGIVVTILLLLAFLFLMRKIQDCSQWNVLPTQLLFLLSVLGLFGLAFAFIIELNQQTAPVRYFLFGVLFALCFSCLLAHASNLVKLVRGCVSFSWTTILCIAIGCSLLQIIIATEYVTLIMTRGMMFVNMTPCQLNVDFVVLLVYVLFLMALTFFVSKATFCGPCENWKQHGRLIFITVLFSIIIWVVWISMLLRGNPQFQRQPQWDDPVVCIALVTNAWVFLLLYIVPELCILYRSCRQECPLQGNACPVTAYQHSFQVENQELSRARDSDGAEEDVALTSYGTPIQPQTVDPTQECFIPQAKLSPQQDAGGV

B1: 37-H1L1 (antibody, V domains shown)
VH: EVQLVESGGGLVQPGGSLRLSCAASGFTFSDYWMNWVRQAPGKGLEWVAEIRLKSNNYATHYAESVKGRFTISRDNAKNSLYLQMNSLRAEDTAVYYCARPLLWFRRYYAMDYWGQGTLVTVSS
VL: DIQMTQSPSSLSASVGDRVTITCSASQGISNYLNWYQQKPGKAPKLLIYYTSSLHSGVPSRFSGSGSGTDFTLTISSLQPEDFATYYCQQYSKLPFTFGQGTKLEIK
notes: humanized 37B9C4, VH v1 x VL v1; also called 37B9C4 (H1L1)
- Bottom [1]: 523
- LogEC50 [1]: 0.511
- Span [1]: 102000
- Top [1]: 102000
- Bottom [2]: 9600
- LogEC50 [2]: 0.357
- Span [2]: 169000
- Top [2]: 178000
- Bottom [3]: 342
- LogEC50 [3]: -0.199
- Span [3]: 13200
- Top [3]: 13500

B2: 37-H2L3 (antibody, V domains shown)
VH: EVQLVESGGGLVQPGGSLRLSCAASGFTFSDYWMNWVRQSPGKGLEWVAEIRLKSNNYATHYAESVKGRFTISRDNAKSSLYLQMNSLRAEDTAVYYCTRPLLWFRRYYAMDYWGQGTLVTVSS
VL: DIQMTQSPSSLSASVGDRITITCSASQGISNYLNWYQQKPGKTVKLLIYYTSSLHSGVPSRFSGSGSGTDYTLTISSLQPEDFATYYCQQYSKLPFTFGSGTKLEIK
notes: humanized 37B9C4, VH v2 x VL v3
- Bottom [2]: 8050
- LogEC50 [2]: 0.333
- Span [2]: 160000
- Top [2]: 168000

B3: 37-H1L3 (antibody, V domains shown)
VH: EVQLVESGGGLVQPGGSLRLSCAASGFTFSDYWMNWVRQAPGKGLEWVAEIRLKSNNYATHYAESVKGRFTISRDNAKNSLYLQMNSLRAEDTAVYYCARPLLWFRRYYAMDYWGQGTLVTVSS
VL: DIQMTQSPSSLSASVGDRITITCSASQGISNYLNWYQQKPGKTVKLLIYYTSSLHSGVPSRFSGSGSGTDYTLTISSLQPEDFATYYCQQYSKLPFTFGSGTKLEIK
notes: humanized 37B9C4, VH v1 x VL v3
- Bottom [2]: 10400
- LogEC50 [2]: 0.233
- Span [2]: 163000
- Top [2]: 173000

B4: 37-H3L1 (antibody, V domains shown)
VH: EVQLVESGGGLVQPGGSLRLSCAASGFTFSDYWMNWVRQSPGKGLEWVAEIRLKSNNYATHYAESVKGRFTISRDDSKSSVYLQMNSLRAEDTAVYYCTRPLLWFRRYYAMDYWGQGTLVTVSS
VL: DIQMTQSPSSLSASVGDRVTITCSASQGISNYLNWYQQKPGKAPKLLIYYTSSLHSGVPSRFSGSGSGTDFTLTISSLQPEDFATYYCQQYSKLPFTFGQGTKLEIK
notes: humanized 37B9C4, VH v3 x VL v1
- Bottom [2]: 6370
- LogEC50 [2]: 0.292
- Span [2]: 173000
- Top [2]: 179000

B5: 37-H3L2 (antibody, V domains shown)
VH: EVQLVESGGGLVQPGGSLRLSCAASGFTFSDYWMNWVRQSPGKGLEWVAEIRLKSNNYATHYAESVKGRFTISRDDSKSSVYLQMNSLRAEDTAVYYCTRPLLWFRRYYAMDYWGQGTLVTVSS
VL: DIQMTQSPSSLSASVGDRVTITCSASQGISNYLNWYQQKPGKTVKLLIYYTSSLHSGVPSRFSGSGSGTDYTLTISSLQPEDFATYYCQQYSKLPFTFGQGTKLEIK
notes: humanized 37B9C4, VH v3 x VL v2
- Bottom [2]: 9190
- LogEC50 [2]: 0.315
- Span [2]: 170000
- Top [2]: 179000

B6: 37-H1L2 (antibody, V domains shown)
VH: EVQLVESGGGLVQPGGSLRLSCAASGFTFSDYWMNWVRQAPGKGLEWVAEIRLKSNNYATHYAESVKGRFTISRDNAKNSLYLQMNSLRAEDTAVYYCARPLLWFRRYYAMDYWGQGTLVTVSS
VL: DIQMTQSPSSLSASVGDRVTITCSASQGISNYLNWYQQKPGKTVKLLIYYTSSLHSGVPSRFSGSGSGTDYTLTISSLQPEDFATYYCQQYSKLPFTFGQGTKLEIK
notes: humanized 37B9C4, VH v1 x VL v2
- Bottom [2]: 8850
- LogEC50 [2]: 0.35
- Span [2]: 173000
- Top [2]: 182000

B7: 37-H3L3 (antibody, V domains shown)
VH: EVQLVESGGGLVQPGGSLRLSCAASGFTFSDYWMNWVRQSPGKGLEWVAEIRLKSNNYATHYAESVKGRFTISRDDSKSSVYLQMNSLRAEDTAVYYCTRPLLWFRRYYAMDYWGQGTLVTVSS
VL: DIQMTQSPSSLSASVGDRITITCSASQGISNYLNWYQQKPGKTVKLLIYYTSSLHSGVPSRFSGSGSGTDYTLTISSLQPEDFATYYCQQYSKLPFTFGSGTKLEIK
notes: humanized 37B9C4, VH v3 x VL v3
- Bottom [2]: 7780
- LogEC50 [2]: 0.285
- Span [2]: 173000
- Top [2]: 181000

B8: 37-H2L1 (antibody, V domains shown)
VH: EVQLVESGGGLVQPGGSLRLSCAASGFTFSDYWMNWVRQSPGKGLEWVAEIRLKSNNYATHYAESVKGRFTISRDNAKSSLYLQMNSLRAEDTAVYYCTRPLLWFRRYYAMDYWGQGTLVTVSS
VL: DIQMTQSPSSLSASVGDRVTITCSASQGISNYLNWYQQKPGKAPKLLIYYTSSLHSGVPSRFSGSGSGTDFTLTISSLQPEDFATYYCQQYSKLPFTFGQGTKLEIK
notes: humanized 37B9C4, VH v2 x VL v1
- Bottom [2]: 9180
- LogEC50 [2]: 0.351
- Span [2]: 166000
- Top [2]: 175000

B9: 38A10E9A11 (chimeric) (antibody, V domains shown)
VH: QVQLQQSGAELARPGASVKMSCKASGYTFTTYTMHWVKQRPGQGLEWIGYINPSSGYTNYNQKFKDKATLTAGKSSSTAYMQLSSLTSEDSAVYYCASLRSRGYFDYWGRGTTLTVSS
VL: DIVMTQSQKFLSTSVGDRVSITCKASQNVGTAVAWYQQKPGQSPKLLIYSASNRYTGVPDRFTGSGSGTDFTLTISNMQSEDLAGYFCQQYSSYPYTFGGGTKLEIK
notes: also called 38A9E10A11
- Bottom [4]: 3020
- LogEC50 [4]: 0.245
- Span [4]: 384000
- Top [4]: 387000

B10: 34-H1L1 (antibody, V domains shown)
VH: EVQLVESGGGLVKPGGSLRLSCAASGFTFSSYGMSWVRQAPGKGLEWVSTISSGGSYTYYPDSVKGRFTISRDNAKNSLYLQMNSLRAEDTAVYYCARQGGDAMDYWGQGTLVTVSS
VL: DIQMTQSPSSLSASVGDRVTITCRASQSINNNLHWYQQKPGKAPKLLIYYASQSISGVPSRFSGSGSGTDFTLTISSLQPEDFATYYCQQSNSRLTFGGGTKVEIK
notes: humanized 34D3H1, VH v1 x VL v1
- Bottom [1]: 171
- LogEC50 [1]: 0.781
- Span [1]: 119000
- Top [1]: 119000
- Bottom [5]: 10900
- LogEC50 [5]: 0.591
- Span [5]: 186000
- Top [5]: 197000
- Bottom [3]: 199
- LogEC50 [3]: 0.805
- Span [3]: 17700
- Top [3]: 17900

B11: 58-H1L1 (antibody, V domains shown)
VH: QVQLVQSGAEVKKPGASVKVSCKASGYSFTGYYIHWVRQAPGQGLEWMGYISSYNAATSFNQKFKGRVTMTRDTSTSTVYMELSSLRSEDTAVYYCARTELRGPWFAYWGQGTLVTVSS
VL: DIQMTQSPSSLSASVGDRVTITCSASSSVSYMNWYQQKPGKAPKLLIYDTSKLASGVPSRFSGSGSGTDFTLTISSLQPEDFATYYCQQWSNNPLTFGQGTKLEIK
notes: humanized 58F9G10, VH v1 x VL v1
- Bottom [1]: 275
- LogEC50 [1]: 0.579
- Span [1]: 99200
- Top [1]: 99500
- Bottom [3]: 281
- LogEC50 [3]: 0.165
- Span [3]: 13200
- Top [3]: 13500
- Bottom [6]: 15000
- LogEC50 [6]: 0.252
- Span [6]: 92800
- Top [6]: 108000

B12: 58-H3L1 (antibody, V domains shown)
VH: QVQLVQSGAEVKKPGASVKVSCKASGYSFTGYYIHWVKQAPGQGLEWIGYISSYNAATSFNQKFKGRVTFTVDTSTSTVYMEFSSLRSEDTAVYYCARTELRGPWFAYWGQGTLVTVSS
VL: DIQMTQSPSSLSASVGDRVTITCSASSSVSYMNWYQQKPGKAPKLLIYDTSKLASGVPSRFSGSGSGTDFTLTISSLQPEDFATYYCQQWSNNPLTFGQGTKLEIK
notes: humanized 58F9G10, VH v3 x VL v1
- Bottom [1]: 75.4
- LogEC50 [1]: 0.612
- Span [1]: 104000
- Top [1]: 104000
- Bottom [3]: 276
- LogEC50 [3]: 0.3
- Span [3]: 13700
- Top [3]: 13900
- Bottom [6]: 9890
- LogEC50 [6]: -0.192
- Span [6]: 93800
- Top [6]: 104000

B13: 21C3C11B3 (chimeric) (antibody, V domains shown)
VH: QVQLQQSGAELVRPGTSVKVSCKASGYAFINYLIEWIKQRPGQGLEWIGMINPGSGGTNYNEKFKDKATLTADKSSSTAYMQLSSLTSDDSAVYFCARNWDVWGQGTTLTVSS
VL: DVVMTQSPLSLPVSLGDQASVSCRSSQSLVHSTGNTYLHWYLQKPGQSPKLLIYKVSNRFSGVPDRFSGSGSGTDFTLKISRVEAEDLGVYFCSQSTHVPWTFGGGTKLEIK
- Bottom [4]: 5770
- LogEC50 [4]: 0.229
- Span [4]: 398000
- Top [4]: 404000

B14: 40A5B2 (chimeric) (antibody, V domains shown)
VH: EVQLQQSGPELVKPGASVKMSCKASGYTFTRNIMHWVKQKPGQGLEWIGYINPYNAGSKYNEKFKGKATLTSDISSSTAYMELSSLTSEDSAVYYCAREEVYYRYGAWFAYWGHGTLVTVSA
VL: DIVLTQSPASLAVSLGQRATISCRASQSVSTSSYSYMHWYQQKPGQPPKLLIKYASNLESGVPARFSGSGSGTDFTLNIHPVEEEDTATYYCQHSWEIPRTFGGGTKLEIK
- Bottom [4]: 1490
- LogEC50 [4]: 0.344
- Span [4]: 439000
- Top [4]: 440000

B15: 29B2C10 (chimeric) (antibody, V domains shown)
VH: EVQLQQSGPELVKPGASMKLSCKASGYSFTGYTMHWVKQSHGENLEWIGLINPYNGGTNYNQKFKGKATLTVDKSSSTAYMELLSLTSEDSAVYYCSRWGLRRAMDYWGQGTSVTVSS
VL: DIVMTQSQKFMSTSVGDRVSVTCKASQNVGSNVAWYQQKPGQSPKALIYSASYRYSGVPDRFTGNGSGTDFTLTISNVQSEDLAEYFCQQYYNSPWTFGGGTKLEIK
- Bottom [4]: 4330
- LogEC50 [4]: 0.342
- Span [4]: 426000
- Top [4]: 430000
